Reference: PMC9482650, “Quantitative fragmentomics allow affinity mapping of interactomes” (Nature Communications, 2022)

How the values were obtained:
Test in all cases: holdup assay
Parameters in all cases: key: below the threshold = too weak to quantify, mostly under pKd 3.1 to 4
Conditions in all cases: plain residues with an end cap or a label only (N-terminal biotin on a linker: ado-ado)
LIN7C, Q9NUP9 = target: T1, LIN7C, Q9NUP9
T1 sequence (Q9NUP9 88-185, limits assumed, looked up): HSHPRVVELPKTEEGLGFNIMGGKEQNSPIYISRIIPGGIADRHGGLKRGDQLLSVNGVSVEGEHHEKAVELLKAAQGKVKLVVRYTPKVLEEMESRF

DLG2_3, Q15700 = target: DLG2_3, Q15700
GRIP2_6, Q9C0E4 = target: GRIP2_6, Q9C0E4
LNX1_2, Q8TBB1 = target: LNX1_2, Q8TBB1
ARHGEF11, O15085 = target: T2, ARHGEF11, O15085
T2 sequence (O15085 42-136, limits assumed, looked up): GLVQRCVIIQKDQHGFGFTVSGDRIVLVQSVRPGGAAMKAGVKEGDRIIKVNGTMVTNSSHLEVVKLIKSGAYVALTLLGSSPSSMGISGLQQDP

RHPN1, Q8TCX5 = target: T3, RHPN1, Q8TCX5
T3 sequence (Q8TCX5 508-602, limits assumed, looked up): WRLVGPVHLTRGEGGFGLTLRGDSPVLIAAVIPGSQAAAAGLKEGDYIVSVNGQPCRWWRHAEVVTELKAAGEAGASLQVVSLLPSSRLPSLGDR

HTRA1, Q92743 = target: HTRA1, Q92743
ARHGEF12, Q9NZN5-2 = target: ARHGEF12, Q9NZN5-2
RADIL, Q96JH8 = target: T4, RADIL, Q96JH8
T4 sequence (Q96JH8 971-1071, limits assumed, looked up): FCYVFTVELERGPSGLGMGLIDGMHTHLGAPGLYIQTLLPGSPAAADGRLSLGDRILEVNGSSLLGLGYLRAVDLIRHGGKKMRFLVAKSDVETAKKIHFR

TJP3_3, O95049 = target: T5, TJP3_3, O95049
T5 sequence (O95049 375-456, limits assumed, looked up): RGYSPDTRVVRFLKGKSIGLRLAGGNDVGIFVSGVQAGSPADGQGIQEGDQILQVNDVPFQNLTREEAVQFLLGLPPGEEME

IL16_4, Q14005 = target: IL16_4, Q14005
NHERF3_3, Q5T2W1 = target: T6, NHERF3_3, Q5T2W1
T6 sequence (Q5T2W1 238-333, limits assumed, looked up): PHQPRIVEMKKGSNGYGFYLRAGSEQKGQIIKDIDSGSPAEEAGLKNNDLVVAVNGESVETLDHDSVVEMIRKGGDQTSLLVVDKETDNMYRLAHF

DLG2_2, Q15700 = target: DLG2_2, Q15700
NHERF3_1, Q5T2W1 = target: T7, NHERF3_1, Q5T2W1
T7 sequence (Q5T2W1 4-100, limits assumed, looked up): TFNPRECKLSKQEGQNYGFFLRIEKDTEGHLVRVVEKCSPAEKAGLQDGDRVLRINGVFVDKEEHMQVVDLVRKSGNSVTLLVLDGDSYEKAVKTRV

GRID2IP_1, A4D2P6 = target: GRID2IP_1, A4D2P6
CASK, O14936 = target: CASK, O14936
Inadl_10, Q8NI35 = target: Inadl_10, Q8NI35
GRIP1_2, Q9Y3R0 = target: T8, GRIP1_2, Q9Y3R0
T8 sequence (Q9Y3R0 145-248, limits assumed, looked up): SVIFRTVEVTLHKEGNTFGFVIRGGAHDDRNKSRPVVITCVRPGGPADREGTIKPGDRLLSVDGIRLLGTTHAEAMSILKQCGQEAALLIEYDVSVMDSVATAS

PDZRN4_1, Q6ZMN7 = target: PDZRN4_1, Q6ZMN7
Inadl_2, Q8NI35 = target: Inadl_2, Q8NI35
MAGI1_1, Q96QZ7 = target: MAGI1_1, Q96QZ7
TJP1_2, Q07157 = target: TJP1_2, Q07157
SYNJ2BP, P57105 = target: T9, SYNJ2BP, P57105
T9 sequence (P57105 8-110, limits assumed, looked up): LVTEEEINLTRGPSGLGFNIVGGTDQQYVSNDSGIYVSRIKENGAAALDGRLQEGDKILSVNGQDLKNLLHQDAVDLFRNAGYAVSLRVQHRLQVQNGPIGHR

APBA2_1, Q99767 = target: T10, APBA2_1, Q99767
T10 sequence (Q99767 563-664, limits assumed, looked up): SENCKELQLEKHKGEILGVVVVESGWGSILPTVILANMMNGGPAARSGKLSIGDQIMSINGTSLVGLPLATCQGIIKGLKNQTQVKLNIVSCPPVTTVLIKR

GRIP1_3, Q9Y3R0 = target: T11, GRIP1_3, Q9Y3R0
T11 sequence (Q9Y3R0 247-346, limits assumed, looked up): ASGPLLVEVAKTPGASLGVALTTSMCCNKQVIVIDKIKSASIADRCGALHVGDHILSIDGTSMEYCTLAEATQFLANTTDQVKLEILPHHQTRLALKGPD

SNTG1, Q9NSN8 = target: T12, SNTG1, Q9NSN8
T12 sequence (Q9NSN8 52-150, limits assumed, looked up): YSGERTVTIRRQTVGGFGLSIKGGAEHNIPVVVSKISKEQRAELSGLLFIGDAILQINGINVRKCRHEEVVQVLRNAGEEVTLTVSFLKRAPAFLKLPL

PDZRN4_1, Q6ZMN7, sequence (Q6ZMN7 213-318): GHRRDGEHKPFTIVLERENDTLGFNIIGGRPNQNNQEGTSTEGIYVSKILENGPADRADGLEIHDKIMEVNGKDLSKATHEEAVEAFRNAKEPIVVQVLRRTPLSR
LNX1_2, Q8TBB1, sequence (Q8TBB1 371-470): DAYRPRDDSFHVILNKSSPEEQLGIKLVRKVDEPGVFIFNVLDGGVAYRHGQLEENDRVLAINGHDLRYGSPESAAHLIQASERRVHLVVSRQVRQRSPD
Inadl_2, Q8NI35, sequence (Q8NI35 238-335): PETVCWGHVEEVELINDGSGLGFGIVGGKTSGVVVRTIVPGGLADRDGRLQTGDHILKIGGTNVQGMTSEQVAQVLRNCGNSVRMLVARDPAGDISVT
HTRA1, Q92743, sequence (Q92743 360-477): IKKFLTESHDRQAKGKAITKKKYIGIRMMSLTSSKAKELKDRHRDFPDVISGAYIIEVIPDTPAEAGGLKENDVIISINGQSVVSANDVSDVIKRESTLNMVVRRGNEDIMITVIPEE
ARHGEF12, Q9NZN5-2, sequence (Q9NZN5 other isoform, or with tags, fused parts or gaps): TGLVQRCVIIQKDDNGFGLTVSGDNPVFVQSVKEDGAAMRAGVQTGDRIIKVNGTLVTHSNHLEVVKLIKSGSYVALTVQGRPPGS
MAGI1_1, Q96QZ7, sequence (Q96QZ7 1-106): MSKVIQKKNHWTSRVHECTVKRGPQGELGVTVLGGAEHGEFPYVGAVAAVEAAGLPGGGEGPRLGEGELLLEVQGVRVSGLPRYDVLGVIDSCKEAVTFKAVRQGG
Inadl_10, Q8NI35, sequence (Q8NI35 1673-1763): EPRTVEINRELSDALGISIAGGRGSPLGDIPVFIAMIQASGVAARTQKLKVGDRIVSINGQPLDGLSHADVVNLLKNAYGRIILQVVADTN
IL16_4, Q14005, sequence (Q14005 1229-1329): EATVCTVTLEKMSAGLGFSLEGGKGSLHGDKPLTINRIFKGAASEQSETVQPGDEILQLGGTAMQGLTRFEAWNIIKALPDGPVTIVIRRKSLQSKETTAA
GRIP2_6, Q9C0E4, sequence (Q9C0E4 648-740): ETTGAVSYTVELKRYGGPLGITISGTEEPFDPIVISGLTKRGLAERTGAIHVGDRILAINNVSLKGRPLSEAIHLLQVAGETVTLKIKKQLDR
CASK, O14936, sequence (O14936 487-570): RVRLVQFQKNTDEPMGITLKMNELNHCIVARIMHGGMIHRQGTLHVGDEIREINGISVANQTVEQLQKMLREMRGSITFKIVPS
GRID2IP_1, A4D2P6, sequence (A4D2P6 1-87): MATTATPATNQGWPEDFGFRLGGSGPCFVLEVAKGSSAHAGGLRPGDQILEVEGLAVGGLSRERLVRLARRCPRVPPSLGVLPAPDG
TJP1_2, Q07157, sequence (Q07157 181-274): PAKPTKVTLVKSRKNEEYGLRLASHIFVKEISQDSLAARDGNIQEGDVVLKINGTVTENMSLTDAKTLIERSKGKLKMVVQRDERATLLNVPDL

Binder	pKd (LIN7C, Q9NUP9)	pKd (DLG2_3, Q15700)	pKd (GRIP2_6, Q9C0E4)	pKd (LNX1_2, Q8TBB1)	pKd (ARHGEF11, O15085)	pKd (RHPN1, Q8TCX5)	pKd (HTRA1, Q92743)	pKd (ARHGEF12, Q9NZN5-2)	pKd (RADIL, Q96JH8)	pKd (TJP3_3, O95049)	pKd (IL16_4, Q14005)	pKd (NHERF3_3, Q5T2W1)	pKd (DLG2_2, Q15700)	pKd (NHERF3_1, Q5T2W1)	pKd (GRID2IP_1, A4D2P6)	pKd (CASK, O14936)	pKd (Inadl_10, Q8NI35)	pKd (GRIP1_2, Q9Y3R0)	pKd (PDZRN4_1, Q6ZMN7)	pKd (Inadl_2, Q8NI35)	other results
VISERNSTTV [C3AR1, Q16581]	below the threshold	3.8	below the threshold	3.78	4.45	4.16	4.2	4.33	4.11	below the threshold	below the threshold	below the threshold	4.49	below the threshold	below the threshold	below the threshold	below the threshold	below the threshold	3.63	below the threshold	pKd (MAGI1_1, Q96QZ7): below the threshold; pKd (TJP1_2, Q07157): below the threshold; pKd (SYNJ2BP, P57105): 4.68; pKd (APBA2_1, Q99767): below the threshold; pKd (GRIP1_3, Q9Y3R0): below the threshold; pKd (SNTG1, Q9NSN8): below the threshold
WRSKRTDTLL [RAMP3, O60896]	below the threshold	below the threshold	below the threshold	below the threshold	3.47	4.04	4.26	4.03	3.57	below the threshold	below the threshold	3.48	3.51	5.16	below the threshold	below the threshold	below the threshold	below the threshold	3.75	below the threshold	pKd (MAGI1_1, Q96QZ7): below the threshold; pKd (TJP1_2, Q07157): 3.55; pKd (SYNJ2BP, P57105): 3.84; pKd (APBA2_1, Q99767): below the threshold; pKd (GRIP1_3, Q9Y3R0): below the threshold; pKd (SNTG1, Q9NSN8): below the threshold
PDGEMMEVLI [AMOTL1, Q8IY63]	below the threshold	3.58	3.47	below the threshold	below the threshold	below the threshold	5.05	below the threshold	3.9	below the threshold	below the threshold	below the threshold	below the threshold	4.05	below the threshold	below the threshold	below the threshold	below the threshold	below the threshold	4.27	pKd (MAGI1_1, Q96QZ7): below the threshold; pKd (TJP1_2, Q07157): below the threshold; pKd (SYNJ2BP, P57105): below the threshold; pKd (APBA2_1, Q99767): below the threshold; pKd (GRIP1_3, Q9Y3R0): below the threshold; pKd (SNTG1, Q9NSN8): 3.63
REVVMRVTTV [MARCHF9, Q86YJ5]	4.47	4.92	below the threshold	4.56	4.65	3.91	4.83	4.8	4.68	below the threshold	3.53	below the threshold	5.2	below the threshold	below the threshold	3.5	3.6	below the threshold	3.86	below the threshold	pKd (MAGI1_1, Q96QZ7): below the threshold; pKd (TJP1_2, Q07157): below the threshold; pKd (SYNJ2BP, P57105): 4.82; pKd (APBA2_1, Q99767): below the threshold; pKd (GRIP1_3, Q9Y3R0): below the threshold; pKd (SNTG1, Q9NSN8): 4.89
